Measurements reported in paper PMC4267404, “Trihelix transcription factor GT-4 mediates salt tolerance via interaction with TEM2 in Arabidopsis”.

T1: GST-GT-4 (Arabidopsis thaliana, UniProt Q9LU92 1-372)
T1 sequence: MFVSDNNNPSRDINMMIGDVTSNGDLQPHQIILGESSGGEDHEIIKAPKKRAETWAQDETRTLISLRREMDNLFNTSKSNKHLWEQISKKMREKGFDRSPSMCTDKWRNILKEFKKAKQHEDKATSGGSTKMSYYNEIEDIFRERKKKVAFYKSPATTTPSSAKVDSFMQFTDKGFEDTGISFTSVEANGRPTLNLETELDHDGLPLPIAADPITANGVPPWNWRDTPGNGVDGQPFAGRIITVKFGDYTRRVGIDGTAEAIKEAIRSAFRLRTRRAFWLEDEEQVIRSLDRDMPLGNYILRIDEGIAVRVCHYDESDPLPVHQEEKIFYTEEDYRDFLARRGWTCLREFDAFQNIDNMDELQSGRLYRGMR

B1: Cor15A promoter 60 bp fragment with GT-3b box (dsDNA)
DNA 1: TTTCTTTAAGGAAATACATCAGAGAGAAAAATTATTACGAAACGATTCTATTACAAGTAA
DNA 2: TTACTTGTAATAGAATCGTTTCGTAATAATTTTTCTCTCTGATGTATTTCCTTAAAGAAA
B2: P2 (GT-3b box) (dsDNA)
DNA 1: CGGAAAAATCGAAAAATCGAAAAATT
DNA 2: AATTTTTCGATTTTTCGATTTTTCCG
B3: P7 (MRE4) (dsDNA)
DNA 1: TATCTCACCGTTACCTCTCACCGTTACCTCTCACCTACCATT
DNA 2: AATGGTAGGTGAGAGGTAACGGTGAGAGGTAACGGTGAGATA
B4: P1 (GT-3 box) (dsDNA)
DNA 1: CGGGGTAAATAGGTAAATAGGTAAATA
DNA 2: TATTTACCTATTTACCTATTTACCCCG

Columns and labels:
GST-GT-4 [1] = biological target: T1, GST-GT-4; assay: EMSA; Probes annealed in 50 mM NaCl (70 C 5 min, then room temperature); EMSA binding buffer, pH and temperature not given (as in ref. 57); details: protein: recombinant; tags: N-terminal GST (pGEX6p-1); label: digoxigenin
GST-GT-4 [2] = biological target: T1, GST-GT-4; assay: EMSA; unlabeled competitor reduces band; Probes annealed in 50 mM NaCl (70 C 5 min, then room temperature); EMSA binding buffer, pH and temperature not given (as in ref. 57); details: protein: recombinant; tags: N-terminal GST (pGEX6p-1); label: digoxigenin; annealed complementary oligos

| Binder | binding result (GST-GT-4 [1]) | binding result (GST-GT-4 [2]) |
| --- | --- | --- |
| B1 | binds |  |
| B2 |  | binds |
| B3 |  | binds |
| B4 |  | binds |
